Measured values: the supplement of paper PMC7125110
± gives the standard error. For some assays here: Fewer inactive variants are shown than the library holds.

B1: glmS ribozyme (parent)
chain: AUAAAAGCGCCAGAACUACAGAAAUGUAGUUGACGAGGAGGAGGUUUAUCGAAUUUUCGGCGGAUGCCUCCAAA

Key:
Conditions in all cases: with glucosamine-6-phosphate
[1] = variants of: B1; assay: kcat; higher = faster cleavage; RNA array
Procedure, shortened: (§1)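 Tiles of sequenced MiSeq chips were imaged over ~14 h at 37 °C. On them, barcoded ribozyme variants had been transcribed in situ by E. coli RNA polymerase and were tracked via a hybridised Cy3 probe while glucosamine-6-phosphate (40 μM to 10 mM) in HEPES/KCl/Mg(OAc)2 buffer flowed in. Per-tile medians, normalised to baseline and to non-cleaving reference variants, were fit to one- or two-exponential decays for kobs, and weighted Michaelis–Menten fits gave kcat and KM.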

[2] = variants of: B1; assay: self-cleavage kobs at 40 uM GlcN6P; higher = faster cleavage; RNA array
Procedure, shortened: as §1

[3] = variants of: B1; assay: self-cleavage kobs at 640 uM GlcN6P; higher = faster cleavage; RNA array
Procedure, shortened: as §1

[4] = variants of: B1; assay: KM; higher = weaker cofactor use; RNA array
Procedure, shortened: as §1

[5] = variants of: B1; assay: self-cleavage kobs at 2500 uM GlcN6P; higher = faster cleavage; RNA array
Procedure, shortened: as §1

[6] = variants of: B1; assay: self-cleavage kobs at 10000 uM GlcN6P; higher = faster cleavage; RNA array
Procedure, shortened: as §1

[7] = variants of: B1; assay: self-cleavage kobs at 160 uM GlcN6P; higher = faster cleavage; RNA array
Procedure, shortened: as §1

Variant | kcat [1] [s⁻¹] | self-cleavage kobs at 40 uM GlcN6P [2] [s⁻¹] | self-cleavage kobs at 640 uM GlcN6P [3] [s⁻¹] | KM [4] [µM] | self-cleavage kobs at 2500 uM GlcN6P [5] [s⁻¹] | self-cleavage kobs at 10000 uM GlcN6P [6] [s⁻¹] | self-cleavage kobs at 160 uM GlcN6P [7] [s⁻¹]
G32C A52G | 1.94e-05 ± 5.2e-06 |  |  |  |  |  | 
A53U G60A | < 1e-05 | < 1e-05 |  |  |  |  | 
G62U C68U | 1.22e-05 ± 1.2e-06 |  | < 1e-05 |  |  |  | 
U30A A52U | 0.000132 ± 2.2e-05 | < 1e-05 |  | 4380 ± 1900 | 4.37e-05 ± 1.6e-05 | 9.26e-05 ± 1.4e-05 | 
C10A G51U | < 1e-05 | < 1e-05 |  |  |  | < 1e-05 | 
C61U U69G | 1.8e-05 ± 3.9e-06 |  |  |  |  |  | 
U55C U69A | 1.74e-05 ± 6.8e-06 |  |  |  |  |  | 
C8U C67A | < 1e-05 |  | < 1e-05 |  |  |  | 
U47C G66U | 2.83e-05 ± 1.3e-05 | < 1e-05 |  |  |  |  | 
U56A U65A | 0.00156 ± 0.00058 | 4.51e-05 ± 1.1e-05 | 0.000368 ± 5.1e-05 |  | 0.000569 ± 9.2e-05 | 0.00148 ± 0.00021 | 7.79e-05 ± 1.3e-05
A6U G66U | < 1e-05 |  |  | 1280 ± 630 |  |  | 
U30G U54C | 0.00885 ± 0.00078 | 0.000148 ± 2.5e-05 | 0.00235 ± 0.00041 | 2170 ± 270 | 0.00471 ± 0.0008 | 0.00714 ± 0.001 | 0.000617 ± 0.00011
C11U G29U | 0.000681 ± 0.00029 |  | 7.49e-05 ± 1.3e-05 |  | 0.000407 ± 6.3e-05 | 0.000463 ± 6.1e-05 | 5.37e-05 ± 1.3e-05
U54G U69G | 7.3e-05 ± 1.5e-05 | 3.86e-05 ± 1.3e-05 | 9.61e-05 ± 1.4e-05 |  | 8.77e-05 ± 1.5e-05 | 4.86e-05 ± 1.1e-05 | 8.46e-05 ± 2.2e-05
G43A U56G | 4.8e-05 ± 2.6e-07 |  |  | 3400 ± 58 |  | 3.58e-05 ± 9e-06 | 
C11U U45G | 0.000317 ± 6.8e-05 |  |  |  | 0.000172 ± 6.6e-05 | 0.000222 ± 4.3e-05 | 
G29C U30G | 0.00361 ± 0.0014 | 8.92e-05 ± 1.8e-05 | 0.00138 ± 0.00041 |  | 0.00147 ± 0.00036 | 0.00472 ± 0.00086 | 0.000309 ± 6.9e-05
A53C U55C | 0.0014 ± 0.00029 |  | 0.00052 ± 9.2e-05 | 1150 ± 480 | 0.00148 ± 0.00029 | 0.00116 ± 0.00017 | 0.00015 ± 4e-05

Variant | kcat [1] [s⁻¹] | self-cleavage kobs at 40 uM GlcN6P [2] [s⁻¹] | self-cleavage kobs at 640 uM GlcN6P [3] [s⁻¹] | KM [4] [µM] | self-cleavage kobs at 2500 uM GlcN6P [5] [s⁻¹] | self-cleavage kobs at 10000 uM GlcN6P [6] [s⁻¹] | self-cleavage kobs at 160 uM GlcN6P [7] [s⁻¹]
A39U | 0.0425 ± 0.0086 | 0.000604 ± 1e-05 | 0.00683 ± 0.00016 | 3040 ± 720 | 0.019 ± 0.00075 | 0.0347 ± 0.0012 | 0.00176 ± 7.4e-05
A39U C58A | 0.000543 ± 0.00013 |  |  |  | 8.13e-05 ± 1.4e-05 | 0.000214 ± 2.7e-05 | 
G13U A14C | 0.00021 ± 2.8e-05 |  |  | 8960 ± 1900 | 4.71e-05 ± 9.7e-06 | 0.00011 ± 2e-05 | 
U31C G63U | < 1e-05 |  |  |  | < 1e-05 |  | 
G29C C71G | 8.64e-05 ± 1.2e-05 |  | 3.96e-05 ± 1.4e-05 |  | 8.9e-05 ± 1.2e-05 | 8.49e-05 ± 1e-05 | 5.06e-05 ± 1.3e-05
G32A C34U | < 1e-05 |  | < 1e-05 |  |  |  | 
U31A A42G | 0.0179 ± 0.0037 | 0.000495 ± 7.3e-05 |  | 1430 ± 370 | 0.00902 ± 0.0026 | 0.0188 ± 0.0042 | 0.00191 ± 0.00054
U45A U65C | 0.00412 ± 0.0005 | 9.95e-05 ± 1.1e-05 | 0.000994 ± 0.00014 | 1770 ± 290 | 0.00204 ± 0.00054 | 0.00374 ± 0.00047 | 0.000318 ± 6.3e-05
C58A C67A | 0.000182 ± 3.1e-05 |  | 3.37e-05 ± 1.2e-05 | 2300 ± 1000 | 0.000146 ± 4e-05 | 0.000144 ± 2e-05 | 
A12G C70A | 0.000118 ± 8.6e-06 |  | 4.35e-05 ± 7.9e-06 | 1110 ± 270 | 7.34e-05 ± 1.3e-05 | 0.000108 ± 9.4e-06 | 
G41U G66U | 5.98e-05 ± 1.9e-06 |  | 3.02e-05 ± 1.5e-05 | 582 ± 89 | 5.12e-05 ± 1.5e-05 | 5.53e-05 ± 1.3e-05 | < 1e-05
A15C A42G | 0.00745 ± 0.00078 | 0.000206 ± 3.8e-05 | 0.00216 ± 0.00062 | 1450 ± 220 | 0.00411 ± 0.001 | 0.00721 ± 0.0015 | 0.000843 ± 0.00038
C11U U31A | 0.00134 ± 0.00062 |  | 0.000376 ± 6.7e-05 |  | 0.000431 ± 0.00012 | 0.00146 ± 0.00025 | 9.69e-05 ± 2.6e-05
G43U U49C | < 1e-05 | < 1e-05 | < 1e-05 |  | < 1e-05 |  | < 1e-05
A12C G13U C71G | 1.5e-05 ± 5.4e-06 |  |  |  |  |  | 
C34U U69C | < 1e-05 |  |  |  |  |  | 
A39U A64U | 4.75e-05 ± 1.7e-06 |  | 2.64e-05 ± 9.3e-06 | 537 ± 120 | 4e-05 ± 7e-06 | 4.46e-05 ± 5.4e-06 | 
C67G U69C | 0.00123 ± 0.00012 | 5.09e-05 ± 1.4e-05 | 0.000506 ± 9.2e-05 | 958 ± 170 | 0.00077 ± 0.00014 | 0.00127 ± 0.0002 | 0.000179 ± 3.4e-05
